Tests used:
[1] = target: T1, C. elegans UNC-13 long isoform residues 1-258 bearing the K49E mutation (C. elegans, UniProt P27715 1-258, K49E); assay: ITC
T1 sequence: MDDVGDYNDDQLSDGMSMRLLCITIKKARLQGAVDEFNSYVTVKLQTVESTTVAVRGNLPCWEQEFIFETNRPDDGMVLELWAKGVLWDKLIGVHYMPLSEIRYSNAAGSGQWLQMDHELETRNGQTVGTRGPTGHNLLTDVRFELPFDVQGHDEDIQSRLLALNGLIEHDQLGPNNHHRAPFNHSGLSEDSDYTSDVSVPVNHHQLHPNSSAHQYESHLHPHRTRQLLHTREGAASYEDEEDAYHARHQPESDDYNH

[2] = target: T2, C. elegans UNC-13 long isoform residues 1-258 bearing the K49E mutation (C. elegans, UniProt P27715 1-258, K49E); assay: ITC; Nano ITC (TA Instruments), 20 mM HEPES pH 7.5, 150 mM NaCl, 25°C; one site independent binding model; UNC-13L 1-258 K49E at 21 µM, UNC-10 62-121 WT at 140 µM or K77/79E at 116 µM; details: both partners purified
T2 construct: UNC-13 long isoform, C. elegans, residues 1-258 with K49E; expressed from pGEX6p1; Residues left by HRV3C cleavage of the pGEX6p1 fusion are not described; also called UNC-13L residues 1-258; UNC-13L C2A domain; source: E. coli Rosetta2 (DE3), purified (glutathione sepharose, HRV3C cleavage on beads, Superdex 75)
T2 sequence (looked up): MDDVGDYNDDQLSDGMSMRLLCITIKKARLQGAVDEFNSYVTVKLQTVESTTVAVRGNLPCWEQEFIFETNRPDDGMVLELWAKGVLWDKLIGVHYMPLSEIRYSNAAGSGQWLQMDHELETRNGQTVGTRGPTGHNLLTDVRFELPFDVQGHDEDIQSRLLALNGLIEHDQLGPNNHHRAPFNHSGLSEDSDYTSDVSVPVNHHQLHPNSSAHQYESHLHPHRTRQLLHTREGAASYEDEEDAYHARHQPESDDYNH

Ka [1]: 789000 M⁻¹
Kd [2]: 1.29 µM
B1: C. elegans UNC-10 residues 62-121 WT (domain or fragment, UniProt Q22366 62-121, looked up)
chain: KLVGTQDDAICQICQKTKFADGIGHKCFYCQLRSCARCGGRAQSKNKAIWACSLCQKRQQ
notes: expressed from pGEX6p1; also called UNC-10/RIM ZF domain; source: E. coli Rosetta2 (DE3), grown with ZnSO4, purified (glutathione sepharose, HRV3C cleavage on beads, Superdex 75)
